Measurements from US20240301086A1 (APTEVO RESEARCH AND DEVELOPMENT, published 2024).

T1: mIgG Fc-cyno PSMA ECD (cynomolgus monkey)
T1 construct: Called PSMA dimer in the SPR method; also called mFc-Cyno PSMA ECD; murine Fc-tagged cyno PSMA ECD
T1 chain: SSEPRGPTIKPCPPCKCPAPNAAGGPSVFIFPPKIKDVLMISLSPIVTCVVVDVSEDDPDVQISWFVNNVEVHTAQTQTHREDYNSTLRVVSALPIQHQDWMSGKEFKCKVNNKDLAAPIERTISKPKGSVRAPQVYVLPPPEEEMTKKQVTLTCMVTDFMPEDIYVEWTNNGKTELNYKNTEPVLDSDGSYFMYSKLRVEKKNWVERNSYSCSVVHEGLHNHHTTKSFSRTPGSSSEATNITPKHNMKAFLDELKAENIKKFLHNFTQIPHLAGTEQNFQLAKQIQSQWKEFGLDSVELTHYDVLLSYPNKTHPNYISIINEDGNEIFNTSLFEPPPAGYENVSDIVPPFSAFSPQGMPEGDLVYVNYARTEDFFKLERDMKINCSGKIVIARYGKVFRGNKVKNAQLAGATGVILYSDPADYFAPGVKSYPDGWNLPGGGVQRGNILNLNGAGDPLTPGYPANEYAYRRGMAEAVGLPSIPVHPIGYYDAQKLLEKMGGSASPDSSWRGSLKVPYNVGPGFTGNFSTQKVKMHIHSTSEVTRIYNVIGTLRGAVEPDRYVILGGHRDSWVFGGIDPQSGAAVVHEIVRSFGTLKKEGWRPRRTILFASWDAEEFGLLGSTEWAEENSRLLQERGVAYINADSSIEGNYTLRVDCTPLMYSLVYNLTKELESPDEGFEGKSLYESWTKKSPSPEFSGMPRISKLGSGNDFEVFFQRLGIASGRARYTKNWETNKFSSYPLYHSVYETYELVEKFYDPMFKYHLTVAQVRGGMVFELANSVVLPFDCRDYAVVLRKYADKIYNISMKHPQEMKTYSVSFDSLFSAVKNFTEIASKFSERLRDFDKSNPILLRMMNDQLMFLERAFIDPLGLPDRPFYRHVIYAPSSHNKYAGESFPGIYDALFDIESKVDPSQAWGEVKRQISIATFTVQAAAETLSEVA


Columns and labels:
[1] = biological target: T2, Full-length Human PSMA (TSC435), on cells (human, UniProt Q04609 1-750); assay: flow cytometry on C4-2B cells, PE goat anti-human IgG Fc secondary, MFI (median)
T2 construct: also called CHOK1SV/huPSMA; PSMA on C4-2B, 22RV1, LNCaP, MDA-PCa-2b cells
T2 sequence (Q04609 whole entry): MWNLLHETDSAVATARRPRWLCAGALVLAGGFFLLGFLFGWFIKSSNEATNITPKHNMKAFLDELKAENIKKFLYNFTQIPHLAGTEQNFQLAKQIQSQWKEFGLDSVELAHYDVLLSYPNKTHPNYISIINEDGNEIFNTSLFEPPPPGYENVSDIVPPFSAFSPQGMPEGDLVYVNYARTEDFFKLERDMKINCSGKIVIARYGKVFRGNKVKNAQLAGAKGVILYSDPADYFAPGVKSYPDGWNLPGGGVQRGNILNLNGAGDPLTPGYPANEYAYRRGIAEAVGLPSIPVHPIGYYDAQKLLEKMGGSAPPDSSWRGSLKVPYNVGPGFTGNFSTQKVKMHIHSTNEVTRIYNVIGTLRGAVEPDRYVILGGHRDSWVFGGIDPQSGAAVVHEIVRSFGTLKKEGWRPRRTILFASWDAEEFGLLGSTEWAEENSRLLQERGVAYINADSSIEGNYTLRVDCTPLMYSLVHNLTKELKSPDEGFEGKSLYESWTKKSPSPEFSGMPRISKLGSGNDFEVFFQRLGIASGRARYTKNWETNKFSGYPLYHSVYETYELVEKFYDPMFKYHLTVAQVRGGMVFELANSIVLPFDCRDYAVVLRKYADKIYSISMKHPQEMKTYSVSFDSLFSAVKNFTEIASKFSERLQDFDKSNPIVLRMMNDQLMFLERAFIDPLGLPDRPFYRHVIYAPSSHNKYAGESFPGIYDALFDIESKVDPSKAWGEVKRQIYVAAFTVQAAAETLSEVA

[2] = biological target: T3, human CD3ε in the TCR/CD3 complex on Jurkat cells (human, UniProt P07766 23-207); assay: flow cytometry, Jurkat cells (approximate calculation)
T3 construct: whole, on cells; On the cells it stands in the whole TCR/CD3 complex; also called CD3 (+) cells; CD3-expressing Jurkat cells
T3 sequence (P07766 23-207, one chain of several): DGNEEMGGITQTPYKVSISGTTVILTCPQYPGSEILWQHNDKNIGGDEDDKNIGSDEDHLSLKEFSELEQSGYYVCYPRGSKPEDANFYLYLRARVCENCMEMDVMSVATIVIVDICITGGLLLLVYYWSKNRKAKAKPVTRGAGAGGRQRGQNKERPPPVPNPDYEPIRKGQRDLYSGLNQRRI
Description: Jurkat and C4-2B cells were labelled at approximately 100,000 cells per well, in 96-well plates, with serial dilutions of bispecific constructs ranging in concentration from of 0.1 to 300 nM, for 30 min on ice. Primary label was followed by washes and incubation with PE-labeled minimum cross species reactive secondary antibody, goat anti-human IgG Fcγ, F(ab′)2 (Jackson Laboratory) for 30 minutes on ice. Washes and incubation were done in staining buffer (PBS with 0.2% BSA and 2 mM EDTA). Cells were collected using an BD™ LSRII or a BD FACSymphony™ flow cytometer (BD Biosciences) and analyzed by FlowJo flow cytometry analysis software. Median fluorescence intensity (MFI) of bound molecules on cells was determined after exclusion of doublets. Results were plotted and nonlinear regression analysis to determine EC50 values was performed using GraphPad Prism 7® graphing and statistics software.
On Jurkat cells (FIG. 11B), a range of binding potencies was observed. […] Swapping the orientation of the CD3-binding domain from VH-VL (PSMA01071) to VL-VH (PSMA01086) further reduced binding to CD3 in the C-terminus. The maximum CD3-binding signal differed between the constructs with N-terminal CD3-binding domain constructs showing the highest maximum binding. However, potency (EC50) and not maximum binding correlated with function, as will be shown in the next example.

[3] = biological target: T3, human CD3ε in the TCR/CD3 complex on …; assay: flow cytometry on Jurkat cells, PE goat anti-human IgG Fc secondary, MFI (median)
[4] = biological target: T3, human CD3ε in the TCR/CD3 complex on …; assay: cell-based or functional assay
[5] = biological target: T1, mIgG Fc-cyno PSMA ECD; assay: SPR (Biacore T200), bispecific amine-coupled, mFc-PSMA dimer 1-81 nM as analyte, 1:1 fit
Description: (§1) SPR studies were performed on a subset of bispecific constructs binding to Human and cynomolgus primate PSMA ectodomain (ECD) fused to the c-terminus of a murine IgG1 Fc region. These experiments were conducted at 25° C. in dPBS (Gibco, 14040-133) with 0.2% BSA buffer on a Biacore T200 system. Bispecific constructs were immobilized at a density of ˜2,000-4,000 response units (RU) onto individual flow cells of a CM5 research-grade sensor chip (GE) by standard amine coupling chemistry, leaving one flow cell surface unmodified as the reference. Using a multi-cycle kinetics mode, a buffer blank and […] different concentrations of the PSMA dimer ranging from 1 nM to 81 nM in dPBS with 0.2% BSA were sequentially injected through each flow cell at 30 μL/min for 300 seconds followed by a 600 second dissociation phase. Regeneration was achieved by injection of 10 mM glycine pH 2.0 at a flow rate of 30 μL/min for 40 seconds followed by dPBS with 0.2% BSA buffer stabilization for 1 min.
(§2) Sensorgrams obtained from kinetic SPR measurements were analyzed by the double subtraction method. The signal from the reference flow cell was subtracted from the analyte binding response obtained from flow cells with captured ligands. The buffer blank response was then subtracted from analyte binding responses and the final double-referenced data were analyzed with Biacore T200 Evaluation software (2.0, GE), globally fitting data to derive kinetic parameters. All sensorgrams were fitted using a simple one-to-one binding model.

[6] = biological target: T4, mIgG Fc-human PSMA ECD (human); assay: as above
T4 construct: Called PSMA dimer in the SPR method; also called mFc-Hu PSMA ECD; murine Fc-tagged human PSMA ECD
Description: as §1, §2

[7] = biological target: T5, Human PSMA ECD-AFH (TSC033), recombinant dimeric PSMA ECD (human, UniProt Q04609 44-750); assay: SPR (Biacore T200), human PSMA dimer ECD 10X His (TSC033), 1:1 fit
T5 construct: SEC-purified dimer; also called HuPSMA-AFH; Avi-His-Human PSMA ECD
T5 sequence (Q04609 other isoform, or with tags, fused parts or gaps): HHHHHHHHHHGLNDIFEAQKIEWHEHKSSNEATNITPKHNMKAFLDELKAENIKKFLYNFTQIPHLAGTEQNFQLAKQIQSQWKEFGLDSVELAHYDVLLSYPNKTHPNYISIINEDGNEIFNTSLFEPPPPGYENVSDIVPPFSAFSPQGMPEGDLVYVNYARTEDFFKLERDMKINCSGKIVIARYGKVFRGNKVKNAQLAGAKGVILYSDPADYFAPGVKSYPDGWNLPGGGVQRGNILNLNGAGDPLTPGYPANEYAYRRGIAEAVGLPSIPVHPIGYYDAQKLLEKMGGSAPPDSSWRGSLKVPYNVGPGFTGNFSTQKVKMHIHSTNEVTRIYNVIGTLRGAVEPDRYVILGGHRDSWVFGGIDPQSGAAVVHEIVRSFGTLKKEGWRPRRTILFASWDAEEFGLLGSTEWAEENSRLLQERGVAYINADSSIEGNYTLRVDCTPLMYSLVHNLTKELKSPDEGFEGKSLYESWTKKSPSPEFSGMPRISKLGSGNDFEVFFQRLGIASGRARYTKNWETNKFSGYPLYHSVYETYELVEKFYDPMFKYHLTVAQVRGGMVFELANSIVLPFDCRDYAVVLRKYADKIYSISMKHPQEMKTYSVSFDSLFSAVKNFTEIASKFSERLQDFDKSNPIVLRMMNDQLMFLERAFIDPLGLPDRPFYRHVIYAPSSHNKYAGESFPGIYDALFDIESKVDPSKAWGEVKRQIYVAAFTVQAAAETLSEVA

[8] = biological target: T3, human CD3ε in the TCR/CD3 complex on …; assay: flow cytometry on Jurkat cells, MFI (median)

| Binder | EC50 [1] | fold reduction in binding potency against PSMA01072 [2] | EC50 [3] | cytotoxic activity [4] | fold decrease in T-cell activation and proliferation [4] | Kd [5] | Kd [6] | Kd [7] | binding result [8] |
| --- | --- | --- | --- | --- | --- | --- | --- | --- | --- |
| PSMA01071 Anti PSMA scFv x Fc; Anti PSMA scFv x Fc x Anti CD3 scFv (bispecific antibody) chain 1: QVQLVQSGAEVKKPGASVKVSCKASGYTFTDYYMHWVRQAPGQGLEWMGYFNPYNDYTRYAQKFQGRVTMTRDTSTSTVYMELSSLRSEDTAVYYCARSDGYYDAMDYWGQGTTVTVSSGGGGSGGGGSGGGGSGGGGSDIQMTQSPSSLSASVGDRVTITCRASKSISKYLAWYQQKPGKAPKLLIHSGSSLESGVPSRFSGSGSGTEFTLTISSLQPDDFATYYCQQHIEYPWTFGQGTKVEIKEPKSSDKTHTCPPCPAPPAAAPSVFLFPPKPKDTLMISRTPEVTCVVVDVSHEDPEVKFNWYVDGVEVHNAKTKPREEQYNSTYRVVSVLTVLHQDWLNGKEYKCAVSNKALPAPIEKTISKAKGQPREPQVYTLPPSRDELTKNQVSLWCLVKGFYPSDIAVEWESNGQPENNYKTTPPVLDSDGSFFLYSKLTVDKSRWQQGNVFSCSVMHEALHNHYTQKSLSLSPG chain 2: QVQLVQSGAEVKKPGASVKVSCKASGYTFTDYYMHWVRQAPGQGLEWMGYFNPYNDYTRYAQKFQGRVTMTRDTSTSTVYMELSSLRSEDTAVYYCARSDGYYDAMDYWGQGTTVTVSSGGGGSGGGGSGGGGSGGGGSDIQMTQSPSSLSASVGDRVTITCRASKSISKYLAWYQQKPGKAPKLLIHSGSSLESGVPSRFSGSGSGTEFTLTISSLQPDDFATYYCQQHIEYPWTFGQGTKVEIKEPKSSDKTHTCPPCPAPPAAAPSVFLFPPKPKDTLMISRTPEVTCVVVDVSHEDPEVKFNWYVDGVEVHNAKTKPREEQYNSTYRVVSVLTVLHQDWLNGKEYKCAVSNKALPAPIEKTISKAKGQPREPQVYTLPPSRDELTKNQVSLSCAVKGFYPSDIAVEWESNGQPENNYKTTPPVLDSDGSFFLVSKLTVDKSRWQQGNVFSCSVMHEALHNRFTQKSLSLSPGGGGSPSQVQLVQSGAEVKKPGASVKVSCKASGYTFTRSTMHWVRQAPGQGLEWIGYINPSSAYTNYAQKFQGRVTLTADKSTSTAYMELSSLRSEDTAVYYCASPQVHYDYNGFPYWGQGTLVTVSSGGGGSGGGGSGGGGSGGGGSDIQMTQSPSSLSASVGDRVTITCRASSSVSYMNWYQQKPGKAPKRWIYDSSKLASGVPSRFSGSGSGTDFTLTISSLQPEDFATYYCQQWSRNPPTFGQGTKVEIKRS | 1 nM | ~200 fold | > 204 nM | ~10 fold | ~3 fold |  |  |  |  |
| PSMA01116 Anti-PSMA scFv x Fc x linker x Anti CD3 scFv; Anti PSMA scFv x Fc (bispecific antibody, Heterodimer, bivalent for PSMA and monovalent for CD3; also called PSM01116) chain 1: QVQLVQSGAEVKKPGASVKVSCKASGYTFTDYYMHWVRQAPGQGLEWMGYFNPYNDYTRYAQKFQGRVTMTRDTSTSTVYMELSSLRSEDTAVYYCARSDGYYDAMDYWGQGTTVTVSSGGGGSGGGGSGGGGSGGGGSDIQMTQSPSSLSASVGDRVTITCRASKSISKYLAWYQQKPGKAPKLLIHSGSSLESGVPSRFSGSGSGTEFTLTISSLQPDDFATYYCQQHIEYPWTFGQGTKVEIKEPKSSDKTHTCPPCPAPPAAAPSVFLFPPKPKDTLMISRTPEVTCVVVDVSHEDPEVKFNWYVDGVEVHNAKTKPREEQYNSTYRVVSVLTVLHQDWLNGKEYKCAVSNKALPAPIEKTISKAKGQPREPQVYTLPPSRDELTKNQVSLWCLVKGFYPSDIAVEWESNGQPENNYKTTPPVLDSDGSFFLYSKLTVDKSRWQQGNVFSCSVMHEALHNHYTQKSLSLSPGGGGSPSQVQLVQSGAEVKKPGASVKVSCKASGYTFTRSTMHWVRQAPGQGLEWIGYINPSSAYTNYAQKFQGRVTLTADKSTSTAYMELSSLRSEDTAVYYCASPQVHYDYNGFPYWGQGTLVTVSSGGGGSGGGGSGGGGSGGGGSDIQMTQSPSSLSASVGDRVTITCRASSSVSYMNWYQQKPGKAPKRWIYDSSKLASGVPSRFSGSGSGTDFTLTISSLQPEDFATYYCQQWSRNPPTFGQGTKVEIK chain 2: QVQLVQSGAEVKKPGASVKVSCKASGYTFTDYYMHWVRQAPGQGLEWMGYFNPYNDYTRYAQKFQGRVTMTRDTSTSTVYMELSSLRSEDTAVYYCARSDGYYDAMDYWGQGTTVTVSSGGGGSGGGGSGGGGSGGGGSDIQMTQSPSSLSASVGDRVTITCRASKSISKYLAWYQQKPGKAPKLLIHSGSSLESGVPSRFSGSGSGTEFTLTISSLQPDDFATYYCQQHIEYPWTFGQGTKVEIKEPKSSDKTHTCPPCPAPPAAAPSVFLFPPKPKDTLMISRTPEVTCVVVDVSHEDPEVKFNWYVDGVEVHNAKTKPREEQYNSTYRVVSVLTVLHQDWLNGKEYKCAVSNKALPAPIEKTISKAKGQPREPQVYTLPPSRDELTKNQVSLSCAVKGFYPSDIAVEWESNGQPENNYKTTPPVLDSDGSFFLVSKLTVDKSRWQQGNVFSCSVMHEALHNHYTQKSLSLSPG |  |  |  |  |  | 6.2 nM | 4.1 nM | 5.2 nM | binds |
